Assay [1] has as its target T1, IL-18 receptor (IL-18Rα and IL-18Rβ) on HEK-Blue IL-18 cells (UniProt Q13478).
T1 sequence (looked up) 1: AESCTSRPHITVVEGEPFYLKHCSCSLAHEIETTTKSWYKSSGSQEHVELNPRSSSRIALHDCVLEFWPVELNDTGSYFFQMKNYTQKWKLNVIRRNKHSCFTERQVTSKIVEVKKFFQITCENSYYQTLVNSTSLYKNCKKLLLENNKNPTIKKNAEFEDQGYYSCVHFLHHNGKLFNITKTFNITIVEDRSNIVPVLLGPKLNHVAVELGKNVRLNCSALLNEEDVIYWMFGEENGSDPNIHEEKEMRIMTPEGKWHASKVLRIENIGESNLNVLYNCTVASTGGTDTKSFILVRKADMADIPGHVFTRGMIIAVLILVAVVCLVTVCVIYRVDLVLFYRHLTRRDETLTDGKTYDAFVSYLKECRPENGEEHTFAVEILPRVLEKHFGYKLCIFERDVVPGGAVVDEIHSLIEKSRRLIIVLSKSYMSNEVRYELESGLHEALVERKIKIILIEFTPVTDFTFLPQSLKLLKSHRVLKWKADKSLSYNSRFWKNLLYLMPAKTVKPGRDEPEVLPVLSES
T1 sequence (looked up) 2: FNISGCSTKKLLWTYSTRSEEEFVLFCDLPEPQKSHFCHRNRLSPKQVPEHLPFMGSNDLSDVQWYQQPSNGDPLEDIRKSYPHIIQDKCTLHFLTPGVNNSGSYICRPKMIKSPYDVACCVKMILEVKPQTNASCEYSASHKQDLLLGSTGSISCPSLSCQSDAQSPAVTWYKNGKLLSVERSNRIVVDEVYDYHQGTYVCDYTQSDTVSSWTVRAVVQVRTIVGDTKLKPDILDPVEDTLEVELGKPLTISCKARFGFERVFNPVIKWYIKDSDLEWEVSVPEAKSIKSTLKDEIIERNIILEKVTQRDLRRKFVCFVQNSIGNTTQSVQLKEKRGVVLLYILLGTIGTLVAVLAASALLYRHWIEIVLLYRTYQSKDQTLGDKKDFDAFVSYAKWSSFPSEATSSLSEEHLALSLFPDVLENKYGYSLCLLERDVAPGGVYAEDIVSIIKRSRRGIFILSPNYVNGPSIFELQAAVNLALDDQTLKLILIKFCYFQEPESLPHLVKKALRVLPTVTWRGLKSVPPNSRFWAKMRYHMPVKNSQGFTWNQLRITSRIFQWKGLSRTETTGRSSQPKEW
Description: cell-based or functional assay.

For assay [2], the target named is T2, IL-18 receptor (IL-18Rα/IL-18Rβ) on human PBMCs (human) (UniProt Q13478).
T2 sequence (looked up) 1: T1 sequence (looked up) 1
T2 sequence (looked up) 2: T1 sequence (looked up) 2
Description: cell-based or functional assay.

Human IL-18, sequence (Q14116 37-193 limits assumed): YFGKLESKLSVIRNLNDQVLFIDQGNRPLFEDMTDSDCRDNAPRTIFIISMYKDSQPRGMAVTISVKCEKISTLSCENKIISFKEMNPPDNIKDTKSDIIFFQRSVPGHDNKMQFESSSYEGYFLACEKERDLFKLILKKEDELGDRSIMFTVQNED

In assay [1], “Human IL-18 (from UniProt Q14116 37-193) (ligand)” showed an HEK-Blue: Abs 405 at 100 nM of 2.6 absorbance and an HEK-Blue: Fold over background of 14.4 fold. Further, in assay [2], the Calculated maximum induction of IFN-γ after 24 hours, donor 1 is 42000; the Calculated maximum induction of IFN-γ after 24 hours, donor 2 is 5300; the Calculated maximum induction of IFN-γ after 24 hours, donor 3 was 89000; the Calculated maximum induction of IFN-γ after 24 hours, donor 4 is 69000. Moreover, in assay [2], the Calculated maximum induction of IFN-γ after 24 hours, donor 5 is 150000 and the Calculated maximum induction of IFN-γ after 24 hours, donor 6 is 28000.

The values above are taken from US20250179197A1.
